B1: TPR t1 (parent)
chain: GACCAAUCUGCCCUCAGAGCUCGAGAACAUCUUCGGAUGCAGAGGAGGCAGGCUUCGGUGGCGCGAUAGCGCCAACGUCCUCAACCUCCAAUGCAUCCCACCACAUGAUGAUGCCUGAAGAGCCUUGGUUUUUUG

Variants of: B1
Assay: polymerase ribozyme fitness, log enrichment relative to wild type (log ratio); higher = more active; in vitro selection for triplet polymerase activity
Procedure, shortened: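 Frozen incubation at −7 °C formed the core of a single, triplicate in vitro selection round applied to PCR-built, transcribed mutant libraries of each subunit of a heterodimeric triplet polymerase ribozyme. Extended constructs were gel-excised, captured with streptavidin beads and amplified by RT-PCR, and input and output libraries were Illumina-sequenced with a filter of ≥10 input reads and ≥1 read per output. Fitness is the logarithm of genotype enrichment relative to wild-type enrichment, with inverse-variance-weighted replicate averaging, and the logarithm is base 2.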

| Variant | polymerase ribozyme fitness (log ratio) |
| --- | --- |
| C82U U96G | -1.12 |
| A41C G44U C115A G122U U130G | -4.66 |
| C31U U112A G113A | -4.76 |
| C73U C82A C124G | 1.47 |
| C11U A83C | -0.558 |
| A46C G58C U59A C88G | -2.01 |
| G113C G120U | -3.23 |
| A41C U112A | 0.299 |
| C62U C114G | -3.11 |
| U9G G58U U112A G120A U130C | 0.977 |
| G57C C82G C97U | -1.07 |
| C88U C89A A121U G122A | -1.15 |
| U55C G60A C94A G113U | -4.46 |
| A27U U81C G120A G135A | -4.49 |
| C40U G77A | -1.17 |
| G45A A50G G52A G61U U131G | -3.62 |
| C13U C28G A43G G110C | -0.443 |
| G63C G117U G120A | -2.53 |
| A46U C104A | -2.88 |
| G44A G93U C124G | 0.0379 |
| C13G U54C G63A A100U U109A U131G | -6.38 |
| C8G C15A G51U C76U C98U | -4.46 |
| U59C A66U | -1.57 |
| C8G G45A G52U C53A C98U G110A G120C U129A | -6.11 |

| Variant | polymerase ribozyme fitness (log ratio) |
| --- | --- |
| A27U A46U | -4.77 |
| C64G U112A | -4.73 |
| A29C C62G | -4.52 |
| C20A U54A U131G | -3.27 |
| G61U A83U A90G | 0.371 |
| A6U G42U G51A | -5.8 |
| G52C C115A A118U U131A | -2.68 |
| C3A C79U C124G | 0.849 |
| A50C U130A | -0.352 |
| C11U A43U | -1.62 |
| C20A C88G | -3.11 |
| G35U C70U C73A | -7.04 |
| A50U A91C | -3.23 |
| C13G G120C | 0.441 |
| C13G A37U U38C | -2.77 |
| U81A G120A | -0.668 |
| G117C G122U | -3.99 |
| G10C G36C G45C U59G C62U C80U | -3.25 |
| C73U C114G | -1.76 |
| C13G C34U | -6.06 |
| U21G A37C G44U | -3.59 |
| U54G G61A C80A G120U | -5.8 |
| G63U C70A G127C | -0.596 |
| C3U A27G G135U | -5.83 |

| Variant | polymerase ribozyme fitness (log ratio) |
| --- | --- |
| C20U G69C C94U | -2.8 |
| C11U A16C G93C | -4.45 |
| G61A G113A U130G | -1.32 |
| A6U C53U | 0.192 |
| C12G U21C A29U C123U U131A | -1.87 |
| C34G A50U G61C A90G G110C | -7.04 |
| C34G U87A | -5.65 |
| C64A U78C U81G G120A | -6.42 |
| A6U C56G G110U | -1.25 |
| G47A C88G U112G U133A | -5.65 |
| A83G A84G C99U | -5.16 |
| A43U G45C C49U G120A | -3.19 |
| C12G C64G | -5.49 |
| A24G C85A U96A | -3.35 |
| G48A G120C | 0.921 |
| C12A C72U A100C U133G | -1.76 |
| A46U G60C U96C C123G | 0.53 |
| C49G C89G | -2.16 |
| C12G U14A | -1.56 |
| C12A G57U A91G U96A | -3.09 |
| G48U A83U C85U | -0.796 |
| U9C G48U G52C C94U | -2.36 |
| C72U U116A | -3.04 |
| G61U G63A U96A A103G A111U G113A U132C | -6.45 |

| Variant | polymerase ribozyme fitness (log ratio) |
| --- | --- |
| A24U U32A G48C C70A A74U U81A A121G U125G | -7.22 |
| C8A C86G C102U C104U G110A | -4.28 |
| C28A C76G G120A | -4.53 |
| G63C U116C | -1.29 |
| C73A G93A U131G | -0.498 |
| G45U G52A C115U G135U | -4.62 |
| A6U U7G C8G C56A G63A | -2.06 |
| G51A C53A G61A C73U U133A | -2.11 |
| A37U C64U C88U C102A | -2.71 |
| A2U G35U G69U C79U G120A G128A | -3.99 |
| C20A G57U C97A C115A U116C | -6.48 |
| C8A G44U G57A C64U | -0.879 |
| G17A A75G C89A A90G | -3.23 |
| C56U G69C G71A C79A G113U | -6.83 |
| A103U U132A | -5.02 |
| C11A G77A C82G | -1.88 |
| C82G A90G A91G C101G | -2.95 |
| G61A C101U | -1.21 |
| G113U C124G | -1.38 |
| C102A U130A | -3.46 |
| A43C U112A G127C | -2.51 |
| A37C U67C U81C C123A | -5.95 |
| A6G C56A G69U C104U | -0.478 |
| U9G C97A | -4.53 |

| Variant | polymerase ribozyme fitness (log ratio) |
| --- | --- |
| A26G G120U | -1.88 |
| C12A C62G U78C C79A C85G | -7.47 |
| G42U C49U G61A | -1.64 |
| C4U C70U C80A | -5.32 |
| C56U C80A | -1.98 |
| G52C C86A C114U G120U | -5.89 |
| U7C G113A | 0.595 |
| A18C G63U | -4.53 |
| C56U C72G U129A | -1.89 |
| C72A C99U U109G | -6.16 |
| U14G G47A C89G C114G U116C G117A U133A | -6.43 |
| U54G A103U | -4.6 |
| C4A U21G G44U G63U C82A C124G | -4.8 |
| U7C C72U | 0.588 |
| G39C G52A | -1.32 |
| G17C G77U A91U C123A U132A | -3.88 |
| C3U C13U U59A | -0.207 |
| A16C G42A | -3.47 |
| G10C A83U U106G | -3.53 |
| C28G C62G | -4.58 |
| C12A C13A C72U U92C G117A A121U C123U | -1.56 |
| G44A G47U C94A | -2.96 |
| A5C G47A A66G | -3.08 |
| A43U C123G G127C | -1.59 |

| Variant | polymerase ribozyme fitness (log ratio) |
| --- | --- |
| C3A C114U | -3.65 |
| G61A U78G A84U C86A | -1.71 |
| A29U G45A G47U | -4.18 |
| G45U C53U U130A | -1.99 |
| C8U G71A C76A G120U | -5.96 |
| C73U C80U G135C | -0.322 |
| C13A G44U C72U U78C G128A | -6.14 |
| A24G U54A A68U G71A U112A | -8.22 |
| U9C C70U G93A | 0.136 |
| G61C C73U C85U G117A U129C | -5.49 |
| G44A C89U C123U C124U | 1.33 |
| A105U G113A | -4.72 |
| A27U A29G A83C | -2.59 |
| A6G A37U C72A C73U G117U C124A | -0.937 |
| A37C A103C | -4.98 |
| C12G A29U G39U U55G | -2.45 |
| C8U G17U G36C G71U C82G | -4.44 |
| C73A G113A U131A | -1.4 |
| U9C C31G U92A G93C C114A | -5.25 |
| G36C C40U G48U U125A | -3.35 |
| C13U A18U C31U C64G A103C G110A | -5.64 |
| C53G C64A U112G C124A | -6.11 |
| A5U C70U | -0.781 |
| C70G C79G C98U U109G U125A | -7.56 |

| Variant | polymerase ribozyme fitness (log ratio) |
| --- | --- |
| A5U C104U U112A G120U | -0.575 |
| A6C C82U | -0.547 |
| G17C U78A A111U | -6.19 |
| G51U A66G | -4.49 |
| C28A G71C | -5.69 |
| G19U A46C | -3.44 |
| C40U C49A C72G A74U C94U G117C | -6.96 |
| C20G C56U C82A G113C | -2.04 |
| C104U G120C | 0.802 |
| C85G U106G | -2.45 |
| A50U C115A | -0.803 |
| C28U G60C | -3.11 |
| C15G A37G C62U C76U A118U C124U | -2.37 |
| U21C A37G C62A G117A | -3.01 |
| C34G C79U | -5.43 |
| G25A C40U G63A G113C U129A | -6.66 |
| C3A C85U A90U C114U G127C | -2.77 |
| A6C G17U U96G C98U C123U | -6.92 |
| U9A U55A C56A G63U | -5.03 |
| U9A A18C G44A C70U G93C | -4.58 |
| U96A C115A | -3.09 |
| G35C G63A C73A | -5.71 |
| C62A A95U A121C | -0.641 |

Source: the RNAGym collection of RNA variant scans (doi:10.1073/pnas.2313332121)
